Measurements: paper PMC4877013

Columns and labels:
[1] = biological target: major histocompatibility complex class II of H-2^d (A^d) on macrophages of Balb/c mice (mouse (endogenous in Balb/c peritoneal macrophages))
[2] = biological target: major histocompatibility complex class II of H-2^d (A^d) on macrophages of Balb/c mice (mouse (endogenous in Balb/c peritoneal macrophages)); experiment: flow cytometry on cells; as a1, but L. donovani infected macrophages (I-MΦ) of Balb/c mice

## LACK_(156-173) peptide (amino acid residues 156–173 of LACK protein, Leishmania homolog of receptors for activated C-kinase)
[1]
  rate of decrease of IL-2 production by anti-LACK T cell hybridoma LMR7.5 cocultured with peptide pulsed, fixed I-MΦ (0 to 12 h after the pulse): 17.1
  rate of decrease of IL-2 production by anti-LACK T cell hybridoma LMR7.5 cocultured with peptide pulsed, fixed I-MΦ-AL (0 to 12 h after the pulse): 15.8
  rate of decrease of IL-2 production by anti-LACK T cell hybridoma LMR7.5 cocultured with peptide pulsed, fixed N-MΦ (0 to 12 h after the pulse): 1.29
[2]
  MFI of LACK (156-173)-A^d at '0' h in I-MΦ against N-MΦ: 30 % less
